Paper PMC8281565

Biological target: histone H3 (UniProt P68431)
Experiment: co-immunoprecipitation (IP with SV40 antibody, WB, densitometry)
Settings: nuclear extracts from transfected HCT116 cells; three different experiments; parent: est. 1.0; read off a plot

SV40 Large T antigen wild type (from UniProt P03070) S106A; S111A; S112G
ratio to parent: 0.61
